# According to US20100095387A1, “METHODS AND REAGENTS FOR SCREENING NEW DRUGS AND FOR TREATING ION PUMP ASSOCIATED DISORDERS AND DISEASES” (priority 2005, published 2010):
# Entries after “also recorded” stand apart in the source; their conditions may differ.
# B1: C-Ag15: 15-kD COOH-terminal fragment of agrin created by deleting 37 amino acids from the NH2 terminus of C-Ag20, SEQ. ID NO. 3 (protein)
# chain: MDPWIGKAAERADYMALAIVDGHLQLSYDLASQPVVLRSTVKVNTNRWLRVRAHREHREGSLQVGNEAPVTSSSPLGATQLDTDGALWLGGLQKLPVGQPLPKAYGTGFVGCLRNVVGHRQLHLLEDAVTKPELRPCPTLNSKLGPEQKLISEEDLNSAVDHHHHHH
# modifications: Synthetically produced sequence
# Tests used:
# hippocampal neurons = assay: Fos expression in hippocampal neurons; assay type: cell-based, mouse; settings: 1 nM C-Ag15 with 50 pM C-Ag95z8
# Description: Mouse cortical cultures were prepared from newborn or 1-d-old ICR strain mice (Harlan) as described previously (Hilgenberg et al., 1999). For the first 24 h after plating, cells were maintained in neural basal medium (NBM) plus B27 supplements (Invitrogen), and in nonneuronal cell-conditioned NBM (cNBM) plus B27 thereafter, at 37° C. in humidified 5% CO2 atmosphere. To further reduce proliferation of nonneuronal cells, cultures on glass coverslips used for histology were treated with 5 μM 5-fluoro-2-deoxyuridine (Sigma-Aldrich) 3-4 d after plating. Hippocampal and cerebellar cultures were prepared in a similar manner. Experiments were performed on 10-14-d-old cultures. Agrin-deficient neuron cultures were prepared from cortices of embryonic d 18-19 fetuses resulting from matings between mice heterozygous for a mutation in the agrin gene (Gautam et al., 1996). Cultures were prepared and genotyped as described previously (Li et al., 1999), and were maintained as above.
# Fos expression in cortical cultures was measured by in situ enzyme-linked immunoassay (Hilgenberg et al., 1999). In brief, 11-14-d-old neuronal cultures were treated for 10 min with agrin or other agent diluted in NBM or PBS, then washed in cNBM and returned to the incubator for 2 h. […] The level of Fos expression was determined by monitoring conversion of p-nitrophenyl phosphate to a soluble yellow reaction product at 405 nm. […]
# chick skeletal myotubes = assay: Fos expression in chick muscle cultures; assay type: cell-based; settings: 1 nM C-Ag15 with 50 pM C-Ag95z8
# Description: Chick muscle cultures were prepared from pectoral muscles of 10-11-d-old White Leghorn chick embryos as described previously (Hilgenberg et al., 1999). Experiments were performed on 4-6-d-old cultures.
# Fos expression in cortical cultures was measured by in situ enzyme-linked immunoassay (Hilgenberg et al., 1999). In brief, 11-14-d-old neuronal cultures were treated for 10 min with agrin or other agent diluted in NBM or PBS, then washed in cNBM and returned to the incubator for 2 h. Cultures were rinsed in PBS, fixed in ice cold 4% PFA, and blocked in PBS containing 0.1% Triton X-100 and 4% BSA (PBSTB) before being incubated in a primary rabbit antibody against Fos (Ab-2; Oncogene Research Products) and secondary goat antibody against […] conjugated to alkaline phosphatase (Southern Biotechnology Associates, Inc.). The level of Fos expression was determined by monitoring conversion of p-nitrophenyl phosphate to a soluble yellow reaction product at 405 nm.
# To learn whether inhibition of agrin signaling by C-Ag15 might extend to other neurons or even muscle, mouse hippocampal and cerebellar neurons or chick skeletal myotubes were incubated with 50 pM C-Ag95z8 alone or in the presence of 1 nM C-Ag15, a concentration that blocks activity in cortical neurons. […] However, co-incubation with C-Ag15 inhibited Fos expression in the neurons, but had no effect on muscle. […]
# chick myotubes = assay: AChR clustering assay; assay type: cell-based; settings: 1 nM C-Ag15 with 50 pM C-Ag95z8 overnight
# [1] = molecular target: T1, α3 subunit of the Na+/K+-ATPase (Mus musculus, UniProt Q6PIC6); assay: Chemical cross-linking of agrin fragments to cortical neurons, immunoprecipitation and immunoblot; assay type: binding
# T1 construct: a 110 kDa band characteristic of the native α3Na+/K+-ATPase; endogenous in cells; host or cells: primary mouse cortical neurons, 10-16 days in culture
# Description: Membrane impermeant chemical cross-linking agents BS^3 and DMA were used to stabilize the bond between agrin and its binding sites on cell surface membranes. Cultured neurons were washed briefly in PBS containing 10 mM EDTA followed by preincubation with one or more agrin fragment in PBS^2+ for 30 minutes at room temperature and then cooled on ice prior to addition of a 10× solution of cross-linking agent to a final concentration of 0.1 mM. The cross-linking reaction was allowed to proceed for 30 minutes after which any unreacted cross-linker was quenched and removed by washing with ice cold PBS^2+ containing 50 mM ethanolamine. For immunoblot analysis, cells were scraped into ice-cold TI buffer (20 mM Tris, pH 7.4; 10 mM EDTA; protease inhibitors (Sigma, P8340)) then Dounce homogenized and membrane fraction recovered by centrifugation. For the immunoprecipitation studies, cells were scraped and homogenized in TI buffer containing 150 mM NaCl and 0.5% Triton X-100. Cell extracts were cleared by centrifugation and aliquots of the detergent soluble fraction incubated with the appropriate antibody at 4° C. overnight. Antigen-antibody complexes were precipitated with either protein A or protein G and resuspended in SDS-PAGE sample buffer for immunoblot analysis.
# Ligand induced phosphorylation is a common first step in membrane receptor activation and inhibition of tyrosine kinase activity blocks agrin signalling in central nervous system neurons. To determine if agrin induced phosphorylation of the putative agrin receptor, membranes from neurons cross-linked to C-Ag208 or C-Ag15, alone or in combination, were dissolved, in a detergent-containing buffer and aliquots immunoprecipitated with RAg1 or the phosphotyrosine antibody mAb4G10 (Upstate). Immunoprecipitated proteins were analyzed by immunoblotting with a monoclonal antibody (9E10.2, Invitrogen) against the COON-terminal myc tag on the agrin fragments.
# To confirm the results of the mass spectrometry the ability of different α-subunit antibodies to recognize the putative agrin-Na^+/K^+-ATPase complex was tested. […]
# α3Na+/K+-ATPase = α3Na+/K+-ATPase (Mus musculus, UniProt Q6PIC6); assay: Whole cell current clamp of cultured cortical neurons, channel blockers present; assay type: cell-based
# [2] = tested on: layer V neurons in acute cortical slices; assay: Whole cell current clamp of layer V neurons in acute cortical slices; assay type: cell-based, mouse
# cardiac myocytes = assay: Ca2+ (Fura-2) and Na+ imaging of cultured cardiac myocytes; settings: 10 fold excess of C-Ag15
molecule,measurement,setting,value
B1,effect on C-Ag95z8-induced Fos expression,hippocampal neurons,completely inhibited
same,effect on C-Ag95z8-induced Fos expression,chick skeletal myotubes,no effect
same,effect on AChR clustering activity of C-Ag95z8,chick myotubes,no effect
same,effect on C-Ag208 binding and phosphorylation,[1]; cross-linked in combination with C-Ag208,blocking both binding and phosphorylation
same,tyrosine phosphorylation of the cross-linked complex,[1]; immunoprecipitation with phosphotyrosine antibody mAb4G10,did not induce phosphorylation
same,change in membrane potential,α3Na+/K+-ATPase,−1.0±0.4 mV
same,effect on depolarization induced by active agrin fragments,α3Na+/K+-ATPase,effective in blocking depolarization
same,effect on ouabain induced membrane depolarization,α3Na+/K+-ATPase,blocked
same,time to repolarization after addition,[2]; in kainic acid,≤ 10 min
same,membrane potential,[2]; kainic acid 0.5 μM + C-Ag15,−66.3±1.8 mV
same,action potential frequency,[2]; kainic acid plus C-Ag15,0.01±0.005 Hz
same,effect on response to C-Ag200,[2]; slices,blocked
same,spontaneous action potentials,[2]; two spontaneously active neurons,reversibly inhibited
same,antagonism of C-Ag208 response,cardiac myocytes,effective agrin antagonist; also recorded: effectively blocks
